The target of experiment [1] is T1, c-MET on the surface of A549 lung cancer cells (Homo sapiens (A549), UniProt P08581).
T1 construct: c-MET, the receptor for hepatocyte growth factor/scatter factor, as expressed on cells; also called surface c-MET; c-MET receptor; source: endogenous, on A549 cells (U87MG cells in one down-regulation assay)
Briefly: flow cytometry on cells; A549 cells, 10 µg/ml of each LMH antibody in 1% HSA/PBS, 1 h at 4°C; anti-mouse IgG-PE secondary. Particulars: one partner purified.

For experiment [2], the target named is T2, mature c-MET (disulphide-linked α/β heterodimer) (Homo sapiens (A549), UniProt P08581).
T2 construct: c-MET α-chain, extracellular 50 kDa product of furin cleavage of the precursor; c-MET β-chain, extracellular/intracellular 145 kDa product of furin cleavage of the precursor, contains the TK domain; Detected in the immunoprecipitates by the 145 kDa β-chain band (mAb 25H2); also called mature receptor; source: endogenous, A549 lysate
Briefly: co-IP; immunoprecipitation of endogenous c-MET from A549 lysates (Triton X-100 lysis buffer) with the LMH antibody; membranes blotted with mAb 25H2. Particulars: one partner purified.

Experiment [3] has as its target T3, c-MET extracellular domain (Homo sapiens, UniProt P08581).
T3 construct: c-MET extracellular domain; also called immobilized c-MET extracellular domain
Briefly: SPR; BIAcore; c-MET extracellular domain immobilized, different concentrations of purified LMH antibodies (intact IgG). Particulars: both partners purified. For orientation: In SPR one partner is held on a chip, and binding of the other changes the refractive index at the surface.

T3 sequence (P08581 25-932): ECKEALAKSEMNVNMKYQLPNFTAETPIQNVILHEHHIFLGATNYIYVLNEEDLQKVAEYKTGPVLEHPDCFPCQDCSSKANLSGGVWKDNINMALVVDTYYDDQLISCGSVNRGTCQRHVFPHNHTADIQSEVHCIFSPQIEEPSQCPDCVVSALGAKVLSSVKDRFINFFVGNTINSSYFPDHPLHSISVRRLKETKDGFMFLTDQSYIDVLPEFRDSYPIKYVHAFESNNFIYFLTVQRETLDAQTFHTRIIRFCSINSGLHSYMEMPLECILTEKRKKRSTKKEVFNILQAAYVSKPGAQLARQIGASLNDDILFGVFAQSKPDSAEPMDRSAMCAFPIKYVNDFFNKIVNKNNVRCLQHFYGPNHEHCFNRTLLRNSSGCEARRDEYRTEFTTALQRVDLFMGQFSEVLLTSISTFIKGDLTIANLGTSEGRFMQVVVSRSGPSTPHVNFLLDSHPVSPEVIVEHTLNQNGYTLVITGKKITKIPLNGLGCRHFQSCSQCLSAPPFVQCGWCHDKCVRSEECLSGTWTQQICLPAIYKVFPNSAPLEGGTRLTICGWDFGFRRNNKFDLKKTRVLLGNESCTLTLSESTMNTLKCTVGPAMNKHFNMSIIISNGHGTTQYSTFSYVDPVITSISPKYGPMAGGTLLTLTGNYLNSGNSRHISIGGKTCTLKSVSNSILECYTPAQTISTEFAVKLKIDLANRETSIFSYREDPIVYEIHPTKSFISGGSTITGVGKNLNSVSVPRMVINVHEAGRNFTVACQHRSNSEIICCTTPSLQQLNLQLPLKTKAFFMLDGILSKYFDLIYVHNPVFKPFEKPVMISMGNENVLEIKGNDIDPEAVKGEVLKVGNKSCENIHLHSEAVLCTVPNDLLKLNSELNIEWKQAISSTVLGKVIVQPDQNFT
T1 sequence (P08581 25-1390): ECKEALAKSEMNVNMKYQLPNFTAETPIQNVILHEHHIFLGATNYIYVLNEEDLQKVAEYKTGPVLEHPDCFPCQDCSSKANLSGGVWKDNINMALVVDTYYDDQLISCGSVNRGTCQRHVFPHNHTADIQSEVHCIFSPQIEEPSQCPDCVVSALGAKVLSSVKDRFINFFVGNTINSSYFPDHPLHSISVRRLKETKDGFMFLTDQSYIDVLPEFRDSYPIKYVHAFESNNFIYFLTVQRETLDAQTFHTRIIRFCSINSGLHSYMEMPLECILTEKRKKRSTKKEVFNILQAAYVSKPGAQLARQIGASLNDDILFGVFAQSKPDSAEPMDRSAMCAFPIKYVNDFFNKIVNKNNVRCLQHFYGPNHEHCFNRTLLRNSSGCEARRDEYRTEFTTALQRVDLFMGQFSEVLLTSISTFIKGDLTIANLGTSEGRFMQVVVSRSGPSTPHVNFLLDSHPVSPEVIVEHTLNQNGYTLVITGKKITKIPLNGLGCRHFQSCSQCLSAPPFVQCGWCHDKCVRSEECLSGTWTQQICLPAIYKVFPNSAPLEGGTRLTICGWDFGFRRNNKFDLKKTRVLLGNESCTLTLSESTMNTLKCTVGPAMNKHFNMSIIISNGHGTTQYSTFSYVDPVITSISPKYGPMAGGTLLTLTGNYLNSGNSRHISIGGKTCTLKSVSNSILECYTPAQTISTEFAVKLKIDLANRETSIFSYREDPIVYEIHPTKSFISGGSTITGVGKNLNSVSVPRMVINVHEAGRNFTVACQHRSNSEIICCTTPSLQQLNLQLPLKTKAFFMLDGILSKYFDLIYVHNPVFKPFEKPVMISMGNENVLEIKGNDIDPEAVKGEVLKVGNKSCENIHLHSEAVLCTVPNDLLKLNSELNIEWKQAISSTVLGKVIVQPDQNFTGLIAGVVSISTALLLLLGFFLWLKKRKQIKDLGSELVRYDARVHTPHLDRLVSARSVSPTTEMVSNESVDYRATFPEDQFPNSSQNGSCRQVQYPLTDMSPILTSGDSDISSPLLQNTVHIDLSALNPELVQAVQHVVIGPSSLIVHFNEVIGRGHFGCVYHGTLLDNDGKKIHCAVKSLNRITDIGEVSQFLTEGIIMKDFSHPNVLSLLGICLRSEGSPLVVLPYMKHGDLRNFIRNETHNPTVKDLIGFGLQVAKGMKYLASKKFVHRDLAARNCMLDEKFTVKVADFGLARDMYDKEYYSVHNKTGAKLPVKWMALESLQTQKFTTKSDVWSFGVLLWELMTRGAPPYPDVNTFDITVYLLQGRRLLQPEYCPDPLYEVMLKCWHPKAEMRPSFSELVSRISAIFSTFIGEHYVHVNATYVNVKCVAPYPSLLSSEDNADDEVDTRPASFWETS

B1: LMH 85 (antibody, V domains shown)
VH: QVQLQQSGAELAKPGASVKMSCKASGYTFIIYWIHWIKQRPGQGLEWIGYINPSNDYTEYNQKFKDKATLTADKSSNTAFMQLSSLTSEDSAVYYCARDSYDYDDGAYAMDYWGQGTSVTVSS
VL: QIVLSQSPAILSASPGEKVTMTCRASSGVNYMHWYQQKPGSSPKPWIYATSNLASGVPARFSGSGSGTSYSLTISRVEAEDAATYYCQQWISHPFTFGSGTKLEIK
notes: VH domain; heavy chain constant region of a mouse IgG; VL domain; light chain constant region of a mouse antibody; Intact bivalent mouse monoclonal antibody, agonist of c-MET; also called LMH 85 antibody; mAb LMH 85; source: clonal supernatants in the screening ELISA; copies: 2 + 2
On to B1, for which the binding result in experiment [1] and in experiment [2] was “binds” each time.

B2: LMH 87 (antibody, V domains shown)
VH: QVQLQQSGPELVKSGASVKMSCKASGNTLKDDHVHWVKQRPGQGLEWIGWIYPGGGRTRYNEKFKGKTTLTADKPSSTVNMLLSSLTSEDSAIYFCTNLVFDVWGAGTTVTVSS
VL: DIVMTQAAPSVPVTPGESVSISCRSSKSLLHSNGNTYLYWFLQRPGQSPQVLIYRMSNLASGVPDRFSGSGSGTAFTLRIRRVEAEDVGVYYCMQNLEYPFTFGGGTKLEIK
notes: VH domain; heavy chain constant region of a mouse IgG; VL (Vk) domain; light chain constant region of a mouse antibody (the methods call the variable segment Vk); Intact bivalent mouse monoclonal antibody; also called LMH 87 antibody; mAb LMH 87; source: clonal supernatants in the screening ELISA; copies: 2 + 2
B2 registered a Kd in experiment [3] of 2.6 nM.

A word on the Kd: it is the free concentration of one partner at which half of the binding sites on the other are occupied at equilibrium, for simple one-to-one binding.

The values above are taken from PMC3325269, “Non-Agonistic Bivalent Antibodies That Promote c-MET Degradation and Inhibit Tumor Growth and Others Specific for Tumor Related c-MET” (PLoS ONE, 2012).
